For the data set, the target named is OSF2/CBFA1b (lacks 22 aa of exon 8) deletion of 22 aa encoded by exon 8 (Homo sapiens) (UniProt Q13950). Description: cell_activity. As to conditions: p6OSE2-luc, F9 cells.
Chain of OSF2/CBFA1b (lacks 22 aa of exon 8) deletion of 22 aa encoded by exon 8 (Homo sapiens) (Q13950 whole entry, stated change not applied): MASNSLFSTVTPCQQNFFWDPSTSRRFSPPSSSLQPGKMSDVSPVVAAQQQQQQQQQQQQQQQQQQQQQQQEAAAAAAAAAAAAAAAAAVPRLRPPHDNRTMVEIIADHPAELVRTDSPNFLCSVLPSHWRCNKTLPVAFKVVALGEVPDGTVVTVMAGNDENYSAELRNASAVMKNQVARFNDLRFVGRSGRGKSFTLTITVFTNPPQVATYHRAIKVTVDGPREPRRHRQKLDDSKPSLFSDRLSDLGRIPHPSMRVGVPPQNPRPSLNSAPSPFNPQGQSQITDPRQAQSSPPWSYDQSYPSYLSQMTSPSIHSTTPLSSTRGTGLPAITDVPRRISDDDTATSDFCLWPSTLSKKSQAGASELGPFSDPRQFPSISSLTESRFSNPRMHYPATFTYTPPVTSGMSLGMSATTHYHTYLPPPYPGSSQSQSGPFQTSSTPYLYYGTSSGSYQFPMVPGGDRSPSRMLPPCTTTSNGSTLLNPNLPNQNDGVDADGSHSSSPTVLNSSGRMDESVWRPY

With “AGCTGCAATCACCAACCACAGCA (double strand) [Osteocalcin (OG2) OSE2]”, the activity (fold activation) is 40.

The values are drawn from patent US6518063.
